Measured values as given in the supplement of paper PMC10567573.

B1: LMNB1 (parent)
chain: LYKEELEQTYHAKLENARLSSEMN

Variants of: B1
Assay: protein stability index of a GFP-peptide fusion (GPS, HEK-293T) (PSI 1-6); higher = more stable
Conditions: c terminus: a fixed tail appended
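Also: lentivirally expressed fusions sorted by FACS into six bins by GFP to DsRed ratio, PSI derived from sequencing read proportions per bin multiplied by bin number.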

Protein stability index of substitutions, site by site:
L14: D 4.74; R 4.78; T 4.34; K 5.64; A 4.49; F 2.58; H 4.59; S 4.66; G 4.36; E 4.64; N 4.54; V 3.49; M 3.09; W 3.11; P 5; C 4.28; Y 3.51; Q 4.56; I 3.46
Q8: I 2.52; H 2.08; D 3.46; F 2.09; M 2.5; N 2.8; C 2.86; T 3.21; Y 2.45; P 3.84; A 2.19; R 2.81; V 2.09; K 2.49; E 3.15; W 1.71; S 2.56; L 2.38
E5: L 3.89; P 3.1; A 2.28; W 1.37; V 2.77; N 2.53; R 1.76; F 2.28; K 3.09; C 2.32; S 2.4; I 1.82; Y 3.37; G 2.46; Q 1.54; D 3.01; M 2.42; H 2.27; T 1.83
R18: H 3.1; A 3.26; Y 2.24; S 2.92; T 2.73; C 2.6; G 3.35; Q 3.14; M 2.76; I 2.27; L 2.81; E 3.72; K 3.31; D 3.7; N 3.83; F 2.17; V 2.1; W 1.08; P 3.62
A17: F 1.82; S 3.61; E 4.26; D 4.14; L 2.44; P 2.66; Q 3.72; C 1.82; H 3.52; N 3.86; T 2.61; K 3.9; I 1.97; R 3.71; M 1.98; G 4.01; V 1.41; W 1.78; Y 2.2
L19: D 4.25; F 2.68; P 2.74; T 3.6; K 3.35; N 3.76; E 4.75; R 3.79; S 3.08; Q 3.92; A 3.67; G 3.88; M 3.15; C 3.36; W 1.8; V 2.88; I 2.39; H 3.31; Y 2.36
H11: E 4.71; R 2.88; C 3.73; V 3.53; A 3.81; D 4.95; S 4.06; Q 4.24; F 3.29; N 3.14; I 3.12; K 2.4; T 4.16; P 3.91; L 2.84; Y 2.48; W 3.08; M 3.45
E7: D 3.52; L 3.17; S 2.72; V 3.05; N 3.38; T 3.26; F 1.83; Q 3.4; I 2.84; G 3.23; Y 2.38; K 2.77; W 2.34; P 3.35; H 2.53; R 3.44; A 2.47; M 2.07; C 2.11
E4: S 2.94; T 3.06; Y 2.08; I 2.02; V 2.97; A 2.7; N 3.27; Q 2.56; D 2.69; K 2.46; R 2.51; F 2.37; C 2.38; M 2.18; P 3.68; G 2.38; W 1.55; H 2.94; L 2.17
T9: M 2.65; S 3.92; V 2.61; D 4.61; C 3.12; N 3.88; Q 3.77; I 2.6; R 3.64; E 4.24; F 2.57; Y 3.31; W 3.65; K 3.1; A 3.59; P 4.23; H 2.7; L 2.16
Y10: F 3.67; H 4.8; N 4.67; I 4.17; V 4.49; M 4.27; R 4.48; E 5.55; Q 4.79; L 4.23; P 4.4; W 2.63; D 4.97; S 4.49; T 4.66; K 5.14; G 4.52; C 4.16; A 4.25
L6: K 4.4; V 4.34; A 4.29; D 4.72; E 4.49; G 3.81; W 4.74; C 3.8; M 4.03; Q 5.03; F 3.21; Y 4.48; T 4.75; S 4.7; P 4.39; R 4.38; I 3.46; H 4.26; N 4.57
N16: L 3.23; C 2.48; Q 3.32; D 2.92; K 2.98; V 2.3; G 2.27; M 3.03; Y 1.83; S 2.42; T 2.96; E 4; P 3.33; H 3.14; R 2.92; I 2.35; A 2.98; F 1.89
K3: L 1.79; W 1.61; P 3.09; R 2.9; V 1.67; I 2.19; M 1.7; Y 2.34; N 3.29; S 2.65; Q 2.56; T 2.81
A12: D 4.61; P 3.73; T 4.08; Y 3.52; I 2.87; L 3.17; Q 4.25; W 2.65; S 4.29; E 4.72; H 3.71; V 3.48; K 4.32; C 2.09; N 4.38; M 2.36; G 3.44
S21: F 2.42; E 3.18; A 2.68; D 3.48; C 2.02
S20: V 2.88; Y 1.93; T 2.74; F 2.29; M 2.58; D 2.71; G 2.7; N 3.07; L 3.38; C 2.21; R 3.26; W 1.82; H 2.73; I 2.81; E 2.04; P 3.18; A 2.63; K 3.6; Q 2.91
K13: L 2.38; G 4.57; S 2.82; I 1.95; T 2.06; M 2.48; F 2.25; H 3.08; V 2.8; W 2.65; Y 1.84; E 4.33; D 4.59; R 2.55; C 2.71; A 3.93; Q 3.06; P 4.37; N 3.35
E15: A 2.61; H 2.38; D 3.48; V 2.01; R 2.76; Q 2.58; K 2.98; Y 2.47; P 3.31; S 2.33; G 2.65; I 2.44; F 2.38; T 2.25; M 1.94; W 1.94; N 2.71; C 2.06; L 2.9
